Experimental data reported in publication PMC9860392, “The N-terminal domain of human mitochondrial helicase Twinkle has DNA-binding activity crucial for supporting processive DNA synthesis by polymerase γ” (The Journal of Biological Chemistry, 2022).

Tests used:
[1] = target: the molecule itself; assay: SEC; Superdex 200 Increase 10/300 GL, 4 °C, 0.3 ml/min; 15 μl of 38.5 μM (monomer) FL Twinkle in 50 mM Tris-Cl pH 7.1, 5% glycerol, 300 mM NaCl, 1 mM TCEP; size from a calibration curve of protein standards
[2] = target: the molecule itself; assay: SEC; Superdex 200 Increase 10/300 GL, 4 °C, 0.3 ml/min; 50 μl of 10 μM (monomer) CTD in 50 mM Tris-Cl pH 7.1, 5% glycerol, 600 mM NaCl; size from a calibration curve of protein standards
[3] = target: T1, FL Twinkle (mitochondrial helicase) (Homo sapiens, UniProt Q96RR1 43-684); assay: fluorescence anisotropy; no NaCl added; 50 mM Tris acetate pH 7.5, 10% glycerol, 0.05% Tween-20, 0.5 mM DTT, 0 or 50 mM NaCl; 2.5 nM DNA; no Mg2+ or nucleotide listed; temperature not stated; details: protein: recombinant; tags: SUMO tag removed (ULP1); chain copies: 6; label: 3' fluorescein-T; single strand
T1 sequence: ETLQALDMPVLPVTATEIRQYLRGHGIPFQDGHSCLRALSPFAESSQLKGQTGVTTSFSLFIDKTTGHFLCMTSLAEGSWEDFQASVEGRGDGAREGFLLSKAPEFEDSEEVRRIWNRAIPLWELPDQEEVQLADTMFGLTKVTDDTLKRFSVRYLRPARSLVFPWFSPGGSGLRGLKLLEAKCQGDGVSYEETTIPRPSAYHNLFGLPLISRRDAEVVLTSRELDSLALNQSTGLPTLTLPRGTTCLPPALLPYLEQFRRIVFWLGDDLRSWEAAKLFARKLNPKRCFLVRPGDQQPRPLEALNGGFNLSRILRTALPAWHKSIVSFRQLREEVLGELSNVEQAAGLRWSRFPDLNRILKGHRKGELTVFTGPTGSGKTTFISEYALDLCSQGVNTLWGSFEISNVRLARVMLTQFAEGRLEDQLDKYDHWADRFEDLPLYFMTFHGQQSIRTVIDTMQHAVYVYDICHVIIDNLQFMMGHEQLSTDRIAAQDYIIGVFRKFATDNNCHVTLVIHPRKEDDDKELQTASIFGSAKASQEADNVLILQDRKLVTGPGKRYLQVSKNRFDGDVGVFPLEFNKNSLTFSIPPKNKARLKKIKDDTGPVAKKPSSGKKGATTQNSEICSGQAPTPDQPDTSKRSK

[4] = target: T2, Twinkle CTD (C-terminal domain plus linker) (Homo sapiens, UniProt Q96RR1 360-684); assay: as above; details: protein: recombinant; tags: SUMO tag removed (ULP1); chain copies: 6; label: 3' fluorescein-T; single strand
T2 sequence: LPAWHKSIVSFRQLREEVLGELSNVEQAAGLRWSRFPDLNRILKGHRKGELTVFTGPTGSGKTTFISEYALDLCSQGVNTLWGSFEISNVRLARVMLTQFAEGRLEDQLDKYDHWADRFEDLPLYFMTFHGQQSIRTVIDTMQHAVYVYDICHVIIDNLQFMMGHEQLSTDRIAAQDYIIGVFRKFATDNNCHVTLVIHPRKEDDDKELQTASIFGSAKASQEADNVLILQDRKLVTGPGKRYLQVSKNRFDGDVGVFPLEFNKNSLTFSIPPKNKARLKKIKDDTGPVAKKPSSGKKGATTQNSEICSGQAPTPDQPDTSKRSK

[5] = target: T1, FL Twinkle (mitochondrial helicase); assay: fluorescence anisotropy; 50 mM NaCl (error exceeds value); 50 mM Tris acetate pH 7.5, 10% glycerol, 0.05% Tween-20, 0.5 mM DTT, 0 or 50 mM NaCl; 2.5 nM DNA; no Mg2+ or nucleotide listed; temperature not stated; details: protein: recombinant; tags: SUMO tag removed (ULP1); chain copies: 6; label: 3' fluorescein-T; single strand
Twinkle NTD [6] = target: T3, Twinkle NTD (Homo sapiens, UniProt Q96RR1 43-372); assay: fluorescence anisotropy; no NaCl added; negligible binding; 50 mM Tris acetate pH 7.5, 10% glycerol, 0.05% Tween-20, 0.5 mM DTT, 0 or 50 mM NaCl; 2.5 nM DNA; no Mg2+ or nucleotide listed; temperature not stated; details: protein: recombinant; tags: SUMO tag removed (ULP1); label: 3' fluorescein-T; single strand
T3 sequence: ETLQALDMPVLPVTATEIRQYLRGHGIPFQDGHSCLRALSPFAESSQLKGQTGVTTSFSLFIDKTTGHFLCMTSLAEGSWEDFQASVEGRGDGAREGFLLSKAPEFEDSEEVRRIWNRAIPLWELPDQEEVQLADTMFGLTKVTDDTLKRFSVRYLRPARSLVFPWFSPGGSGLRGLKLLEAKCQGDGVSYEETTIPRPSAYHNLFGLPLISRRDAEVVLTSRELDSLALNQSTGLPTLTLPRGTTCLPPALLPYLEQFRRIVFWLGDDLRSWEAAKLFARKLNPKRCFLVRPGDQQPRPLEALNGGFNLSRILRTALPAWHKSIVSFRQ

[7] = target: T1, FL Twinkle (mitochondrial helicase); assay: fluorescence anisotropy; 50 mM NaCl; 50 mM Tris acetate pH 7.5, 10% glycerol, 0.05% Tween-20, 0.5 mM DTT, 0 or 50 mM NaCl; 2.5 nM DNA; no Mg2+ or nucleotide listed; temperature not stated; details: protein: recombinant; tags: SUMO tag removed (ULP1); chain copies: 6; label: 3' fluorescein-T; single strand
Twinkle NTD [8] = target: T3, Twinkle NTD; assay: fluorescence anisotropy; no NaCl added; 50 mM Tris acetate pH 7.5, 10% glycerol, 0.05% Tween-20, 0.5 mM DTT, 0 or 50 mM NaCl; 2.5 nM DNA; no Mg2+ or nucleotide listed; temperature not stated; details: protein: recombinant; tags: SUMO tag removed (ULP1); label: 3' fluorescein-T; single strand
[9] = target: T2, Twinkle CTD (C-terminal domain plus …); assay: fluorescence anisotropy; 50 mM NaCl; 50 mM Tris acetate pH 7.5, 10% glycerol, 0.05% Tween-20, 0.5 mM DTT, 0 or 50 mM NaCl; 2.5 nM DNA; no Mg2+ or nucleotide listed; temperature not stated; details: protein: recombinant; tags: SUMO tag removed (ULP1); chain copies: 6; label: 3' fluorescein-T; single strand
Twinkle NTD [10] = target: T3, Twinkle NTD; assay: fluorescence anisotropy; no NaCl added; weak phase of two-site fit; 50 mM Tris acetate pH 7.5, 10% glycerol, 0.05% Tween-20, 0.5 mM DTT, 0 or 50 mM NaCl; 2.5 nM DNA; no Mg2+ or nucleotide listed; temperature not stated; details: protein: recombinant; tags: SUMO tag removed (ULP1); label: 3' fluorescein-T; single strand
Twinkle NTD [11] = target: T3, Twinkle NTD; assay: fluorescence anisotropy; no NaCl added; tight phase of two-site fit; 50 mM Tris acetate pH 7.5, 10% glycerol, 0.05% Tween-20, 0.5 mM DTT, 0 or 50 mM NaCl; 2.5 nM DNA; no Mg2+ or nucleotide listed; temperature not stated; details: protein: recombinant; tags: SUMO tag removed (ULP1); label: 3' fluorescein-T; single strand

B1: full-length (FL) human Twinkle (amino acids 43-684) (enzyme, UniProt Q96RR1 43-684, looked up)
chain: T1 sequence
notes: human mitochondrial helicase Twinkle, amino acids 43-684; SUMO fusion cut with ULP1 SUMO-protease; the fusion was purified on Ni resin, so it probably carried a His tag that left with SUMO; also called FL Twinkle; TWNK; source: E. coli Rosetta 2 DE3 pLacI, purified (PEI, ammonium sulfate, Ni sepharose, Q sepharose, heparin)
In the case of B1, the “stoichiometry N” value [1] is reported as ~7 subunits.

B2: Twinkle C-terminal domain plus linker (amino acids 360-684) (domain or fragment, human, UniProt Q96RR1 360-684, looked up)
chain: T2 sequence
notes: human mitochondrial helicase Twinkle, amino acids 360-684 (linker region and C-terminal domain; 36,650 Da); Cloned in the pET28 SUMO expression vector; SUMO cut with ULP1 SUMO-protease; the fusion was purified on Ni resin, so it probably carried a His tag that left with SUMO; also called CTD; Twinkle CTD; source: E. coli Rosetta 2 DE3 pLacI, purified (PEI, ammonium sulfate, Ni-NTA, heparin)
For B2, the “stoichiometry N” value [2] was ~12 subunit.

TGAACACT (ssDNA) [8 nt ssDNA] was tested, and the Kd [3] was 9 ± 4.9 nM, the Kd [4] was 116 ± 41 nM and the Kd [5] was 10 ± 12 nM. TGAACACT (ssDNA) [8 nt ssDNA]: no binding (Twinkle NTD [6]).

For CTCTTGAACACT (ssDNA) [12 nt ssDNA], the Kd [7] was 53 ± 17 nM, the Kd (Twinkle NTD [8]) was 141 ± 25 nM and the Kd [3] was 5.2 ± 1 nM. It also gave a Kd [4] of 21.7 ± 3 nM.

With TGCTATAACTCTTGAACACT (ssDNA) [20 nt ssDNA] the Kd [7] was 8.8 ± 1.3 nM, the Kd [9] was 50 ± 11 nM and the Kd [3] was 1.9 ± 0.5 nM. For the same binder, the Kd [4] was 2.2 ± 0.7 nM, the Kd (Twinkle NTD [10]) was 1200 ± 640 nM and the Kd (Twinkle NTD [11]) was 18 ± 7 nM.

TGTGTTAGTTGGGGGGTGACTGTTAAAAGT (ssDNA) [30 nt ssDNA] was tested, and the Kd [7] was 2.6 ± 0.5 nM, the Kd [9] was 4.5 ± 0.9 nM and the Kd [3] was 1.6 ± 0.3 nM. It also gave a Kd [4] of 1.7 ± 0.5 nM, a Kd (Twinkle NTD [10]) of 730 ± 450 nM and a Kd (Twinkle NTD [11]) of 17.5 ± 4 nM.

With AACTCTTGAACACT (ssDNA) [14 nt ssDNA] the Kd [7] was 39 ± 16 nM, the Kd (Twinkle NTD [8]) was 121 ± 26 nM and the Kd [3] was 3.3 ± 0.7 nM. It also gave a Kd [4] of 8.8 ± 1.5 nM.

ATAACTCTTGAACACT (ssDNA) [16 nt ssDNA] gave a Kd [7] of 22.6 ± 5.1 nM, a Kd (Twinkle NTD [8]) of 105 ± 24 nM and a Kd [3] of 2.8 ± 0.7 nM. It also gave a Kd [4] of 5.2 ± 1.4 nM.
